Reference: the RNAGym collection of RNA variant scans (doi:10.1093/nar/gkz1192)

B1: CPEB3 Ribozyme (parent)
chain: UAACAGGGGGCCACAGCAGAAGCGUUCACGUCGCAGCCCCUGUCAGAUUCUGGUGAAUCUGCGAAUUCUGCUGUAUAUCUC

Variants of: B1
Assay: self-cleavage, relative activity (ratio to wild type); higher = more cleavage; in vitro, sequencing
Outline: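 CPEB3 self-cleaving ribozyme mutant libraries were made by rounds of error-prone PCR, barcoded, and transcribed in vitro with T7 RNA polymerase for 5 hours at 37°C. Cleavage occurred during transcription and a 15 min DNase I step before EDTA stop. RNAs were reverse transcribed with template switching and Illumina-sequenced, with DNA sequencing mapping barcodes to variants. Relative activity is the variant's cleaved/total read fraction divided by wild type's (minimum 5 reads), averaged across three batches.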

| Variant | self-cleavage |
| --- | --- |
| UAACAUGGGGCCACAGCAGAAGCGUUCACGUCGCAGCCCCUGUCAGAUUCUGGUGAAUCUGCGAAUUCUGCUGUAAAUCUC [G6U U76A] | 0.32 |
| UAACAUGGGGCCACAGCAGAAGCGUUCACGUCGCAGCCCCUGUCAGAUUCUGGUGAAUCUGCGAAUUCUGCUGUACAUCUC [G6U U76C] | 0.15 |
| UAACAUGGGGCCACAGCAGAAGCGUUCACGUCGCAGCCCCUGUCAGAUUCUGGUGAAUCUGCGAAUUCUGCUGUAUAACUC [G6U U78A] | 0.79 |
| UAACAUGGGGCCACAGCAGAAGCGUUCACGUCGCAGCCCCUGUCAGAUUCUGGUGAAUCUGCGAAUUCUGCUGUAUAUCAC [G6U U80A] | 0.44 |
| UAACAUGGGGCCACAGCAGAAGCGUUCACGUCGCAGCCCCUGUCAGAUUCUGGUGAAUCUGCGAAUUCUGCUGUAUAUCCC [G6U U80C] | 0.09 |
| UAACAGAGGGCCACAGCAGAAGCGUUCACGUCGCAGCCCCUGUCAGAUUCUGGUGAAUCUGCGAAUUCUGCUGUAUAUCUC [G7A] | 0.25 |
| UAACAGAGGGCCGCAGCAGAAGCGUUCACGUCGCAGCCCCUGUCAGAUUCUGGUGAAUCUGCGAAUUCUGCUGUAUAUCUC [G7A A13G] | 0.3 |
| UAACAGAGGGCCACGGCAGAAGCGUUCACGUCGCAGCCCCUGUCAGAUUCUGGUGAAUCUGCGAAUUCUGCUGUAUAUCUC [G7A A15G] | 0.09 |
| UAACAGAGGGCCACUGCAGAAGCGUUCACGUCGCAGCCCCUGUCAGAUUCUGGUGAAUCUGCGAAUUCUGCUGUAUAUCUC [G7A A15U] | 0.23 |
| UAACAGAGGGCCACAGCGGAAGCGUUCACGUCGCAGCCCCUGUCAGAUUCUGGUGAAUCUGCGAAUUCUGCUGUAUAUCUC [G7A A18G] | 0.25 |
| UAACAGAGGGCCACAGCAGCAGCGUUCACGUCGCAGCCCCUGUCAGAUUCUGGUGAAUCUGCGAAUUCUGCUGUAUAUCUC [G7A A20C] | 0.27 |
| UAACAGAGGGCCACAGCAGGAGCGUUCACGUCGCAGCCCCUGUCAGAUUCUGGUGAAUCUGCGAAUUCUGCUGUAUAUCUC [G7A A20G] | 0.26 |
| UAACAGAGGGCCACAGCAGAGGCGUUCACGUCGCAGCCCCUGUCAGAUUCUGGUGAAUCUGCGAAUUCUGCUGUAUAUCUC [G7A A21G] | 0.33 |
| UAACAGAGGGCCACAGCAGAAGCGUUCCCGUCGCAGCCCCUGUCAGAUUCUGGUGAAUCUGCGAAUUCUGCUGUAUAUCUC [G7A A28C] | 0.2 |
| UAACAGAGGGCCACAGCAGAAGCGUUCGCGUCGCAGCCCCUGUCAGAUUCUGGUGAAUCUGCGAAUUCUGCUGUAUAUCUC [G7A A28G] | 0.16 |
| UAACAGAGGGCCACAGCAGAAGCGUUCACGUCGCGGCCCCUGUCAGAUUCUGGUGAAUCUGCGAAUUCUGCUGUAUAUCUC [G7A A35G] | 0.46 |
| UAACAGAGGGCCACAGCAGAAGCGUUCACGUCGCUGCCCCUGUCAGAUUCUGGUGAAUCUGCGAAUUCUGCUGUAUAUCUC [G7A A35U] | 0.19 |
| UAACAGAGGGCCACAGCAGAAGCGUUCACGUCGCAGCCCCUGUCGGAUUCUGGUGAAUCUGCGAAUUCUGCUGUAUAUCUC [G7A A45G] | 0.16 |
| UAACAGAGGGCCACAGCAGAAGCGUUCACGUCGCAGCCCCUGUCUGAUUCUGGUGAAUCUGCGAAUUCUGCUGUAUAUCUC [G7A A45U] | 0.16 |
| UAACAGAGGGCCACAGCAGAAGCGUUCACGUCGCAGCCCCUGUCAGGUUCUGGUGAAUCUGCGAAUUCUGCUGUAUAUCUC [G7A A47G] | 0.09 |
| UAACAGAGGGCCACAGCAGAAGCGUUCACGUCGCAGCCCCUGUCAGAUUCUGGUGGAUCUGCGAAUUCUGCUGUAUAUCUC [G7A A56G] | 0.15 |
| UAACAGAGGGCCACAGCAGAAGCGUUCACGUCGCAGCCCCUGUCAGAUUCUGGUGUAUCUGCGAAUUCUGCUGUAUAUCUC [G7A A56U] | 0.52 |
| UAACAGAGGGCCACAGCAGAAGCGUUCACGUCGCAGCCCCUGUCAGAUUCUGGUGAGUCUGCGAAUUCUGCUGUAUAUCUC [G7A A57G] | 0.12 |

| Variant | self-cleavage |
| --- | --- |
| UAACAGAGGGCCACAGCAGAAGCGUUCACGUCGCAGCCCCUGUCAGAUUCUGGUGAAUCUGCGGAUUCUGCUGUAUAUCUC [G7A A64G] | 0.28 |
| UAACAGAGGGCCACAGCAGAAGCGUUCACGUCGCAGCCCCUGUCAGAUUCUGGUGAAUCUGCGUAUUCUGCUGUAUAUCUC [G7A A64U] | 0.18 |
| UAACAGAGGGCCACAGCAGAAGCGUUCACGUCGCAGCCCCUGUCAGAUUCUGGUGAAUCUGCGAGUUCUGCUGUAUAUCUC [G7A A65G] | 0.11 |
| UAACAGAGGGCCACAGCAGAAGCGUUCACGUCGCAGCCCCUGUCAGAUUCUGGUGAAUCUGCGAAUUCUGCUGUGUAUCUC [G7A A75G] | 0.3 |
| UAACAGAGGGCCACAGCAGAAGCGUUCACGUCGCAGCCCCUGUCAGAUUCUGGUGAAUCUGCGAAUUCUGCUGUAUUUCUC [G7A A77U] | 0.26 |
| UAACAGAGGGGCACAGCAGAAGCGUUCACGUCGCAGCCCCUGUCAGAUUCUGGUGAAUCUGCGAAUUCUGCUGUAUAUCUC [G7A C11G] | 0.07 |
| UAACAGAGGGCUACAGCAGAAGCGUUCACGUCGCAGCCCCUGUCAGAUUCUGGUGAAUCUGCGAAUUCUGCUGUAUAUCUC [G7A C12U] | 0.07 |
| UAACAGAGGGCCAAAGCAGAAGCGUUCACGUCGCAGCCCCUGUCAGAUUCUGGUGAAUCUGCGAAUUCUGCUGUAUAUCUC [G7A C14A] | 0.31 |
| UAACAGAGGGCCACAGCAGAAGCGUUCAAGUCGCAGCCCCUGUCAGAUUCUGGUGAAUCUGCGAAUUCUGCUGUAUAUCUC [G7A C29A] | 0.36 |
| UAACAGAGGGCCACAGCAGAAGCGUUCACGUUGCAGCCCCUGUCAGAUUCUGGUGAAUCUGCGAAUUCUGCUGUAUAUCUC [G7A C32U] | 0.09 |
| UAACAGAGGGCCACAGCAGAAGCGUUCACGUCGCAGACCCUGUCAGAUUCUGGUGAAUCUGCGAAUUCUGCUGUAUAUCUC [G7A C37A] | 0.11 |
| UAACAGAGGGCCACAGCAGAAGCGUUCACGUCGCAGCCCAUGUCAGAUUCUGGUGAAUCUGCGAAUUCUGCUGUAUAUCUC [G7A C40A] | 0.18 |
| UAACAGAGGGCCACAGCAGAAGCGUUCACGUCGCAGCCCUUGUCAGAUUCUGGUGAAUCUGCGAAUUCUGCUGUAUAUCUC [G7A C40U] | 0.3 |
| UAACAGAGGGCCACAGCAGAAGCGUUCACGUCGCAGCCCCUGUCAGAUUCUGGUGAAUAUGCGAAUUCUGCUGUAUAUCUC [G7A C59A] | 0.04 |
| UAACAGAGGGCCACAGCAGAAGCGUUCACGUCGCAGCCCCUGUCAGAUUCUGGUGAAUCUGUGAAUUCUGCUGUAUAUCUC [G7A C62U] | 0.22 |
| UAACAGACGGCCACAGCAGAAGCGUUCACGUCGCAGCCCCUGUCAGAUUCUGGUGAAUCUGCGAAUUCUGCUGUAUAUCUC [G7A G8C] | 0.15 |
| UAACAGAGGACCACAGCAGAAGCGUUCACGUCGCAGCCCCUGUCAGAUUCUGGUGAAUCUGCGAAUUCUGCUGUAUAUCUC [G7A G10A] | 0.24 |
| UAACAGAGGGCCACACCAGAAGCGUUCACGUCGCAGCCCCUGUCAGAUUCUGGUGAAUCUGCGAAUUCUGCUGUAUAUCUC [G7A G16C] | 0.23 |
| UAACAGAGGGCCACAGCAGAAGCAUUCACGUCGCAGCCCCUGUCAGAUUCUGGUGAAUCUGCGAAUUCUGCUGUAUAUCUC [G7A G24A] | 0.08 |
| UAACAGAGGGCCACAGCAGAAGCGUUCACAUCGCAGCCCCUGUCAGAUUCUGGUGAAUCUGCGAAUUCUGCUGUAUAUCUC [G7A G30A] | 0.35 |
| UAACAGAGGGCCACAGCAGAAGCGUUCACGUCUCAGCCCCUGUCAGAUUCUGGUGAAUCUGCGAAUUCUGCUGUAUAUCUC [G7A G33U] | 0.07 |
| UAACAGAGGGCCACAGCAGAAGCGUUCACGUCGCAGCCCCUGUCAAAUUCUGGUGAAUCUGCGAAUUCUGCUGUAUAUCUC [G7A G46A] | 0.07 |
| UAACAGAGGGCCACAGCAGAAGCGUUCACGUCGCAGCCCCUGUCAUAUUCUGGUGAAUCUGCGAAUUCUGCUGUAUAUCUC [G7A G46U] | 0.39 |

| Variant | self-cleavage |
| --- | --- |
| UAACAGAGGGCCACAGCAGAAGCGUUCACGUCGCAGCCCCUGUCAGAUUCUGAUGAAUCUGCGAAUUCUGCUGUAUAUCUC [G7A G53A] | 0.19 |
| UAACAGAGGGCCACAGCAGAAGCGUUCACGUCGCAGCCCCUGUCAGAUUCUGGUAAAUCUGCGAAUUCUGCUGUAUAUCUC [G7A G55A] | 0.15 |
| UAACAGAGGGCCACAGCAGAAGCGUUCACGUCGCAGCCCCUGUCAGAUUCUGGUUAAUCUGCGAAUUCUGCUGUAUAUCUC [G7A G55U] | 0.2 |
| UAACAGAGGGCCACAGCAGAAGCGUUCACGUCGCAGCCCCUGUCAGAUUCUGGUGAAUCUGCGAAUUCUCCUGUAUAUCUC [G7A G70C] | 0.06 |
| UAACAGAGGGCCACAGCAGAAGCGUUCACGUCGCAGCCCCUGUCAGAUUCUGGUGAAUCUGCGAAUUCUGCUAUAUAUCUC [G7A G73A] | 0.48 |
| UAACAGAGGGCCACAGCAGAAGCGAUCACGUCGCAGCCCCUGUCAGAUUCUGGUGAAUCUGCGAAUUCUGCUGUAUAUCUC [G7A U25A] | 0.15 |
| UAACAGAGGGCCACAGCAGAAGCGCUCACGUCGCAGCCCCUGUCAGAUUCUGGUGAAUCUGCGAAUUCUGCUGUAUAUCUC [G7A U25C] | 0.33 |
| UAACAGAGGGCCACAGCAGAAGCGUACACGUCGCAGCCCCUGUCAGAUUCUGGUGAAUCUGCGAAUUCUGCUGUAUAUCUC [G7A U26A] | 0.28 |
| UAACAGAGGGCCACAGCAGAAGCGUCCACGUCGCAGCCCCUGUCAGAUUCUGGUGAAUCUGCGAAUUCUGCUGUAUAUCUC [G7A U26C] | 0.25 |
| UAACAGAGGGCCACAGCAGAAGCGUGCACGUCGCAGCCCCUGUCAGAUUCUGGUGAAUCUGCGAAUUCUGCUGUAUAUCUC [G7A U26G] | 0.07 |
| UAACAGAGGGCCACAGCAGAAGCGUUCACGCCGCAGCCCCUGUCAGAUUCUGGUGAAUCUGCGAAUUCUGCUGUAUAUCUC [G7A U31C] | 0.25 |
| UAACAGAGGGCCACAGCAGAAGCGUUCACGGCGCAGCCCCUGUCAGAUUCUGGUGAAUCUGCGAAUUCUGCUGUAUAUCUC [G7A U31G] | 0.14 |
| UAACAGAGGGCCACAGCAGAAGCGUUCACGUCGCAGCCCCAGUCAGAUUCUGGUGAAUCUGCGAAUUCUGCUGUAUAUCUC [G7A U41A] | 0.13 |
| UAACAGAGGGCCACAGCAGAAGCGUUCACGUCGCAGCCCCCGUCAGAUUCUGGUGAAUCUGCGAAUUCUGCUGUAUAUCUC [G7A U41C] | 0.25 |
| UAACAGAGGGCCACAGCAGAAGCGUUCACGUCGCAGCCCCUGACAGAUUCUGGUGAAUCUGCGAAUUCUGCUGUAUAUCUC [G7A U43A] | 0.32 |
| UAACAGAGGGCCACAGCAGAAGCGUUCACGUCGCAGCCCCUGCCAGAUUCUGGUGAAUCUGCGAAUUCUGCUGUAUAUCUC [G7A U43C] | 0.21 |
| UAACAGAGGGCCACAGCAGAAGCGUUCACGUCGCAGCCCCUGGCAGAUUCUGGUGAAUCUGCGAAUUCUGCUGUAUAUCUC [G7A U43G] | 0.15 |
| UAACAGAGGGCCACAGCAGAAGCGUUCACGUCGCAGCCCCUGUCAGAAUCUGGUGAAUCUGCGAAUUCUGCUGUAUAUCUC [G7A U48A] | 0.31 |
| UAACAGAGGGCCACAGCAGAAGCGUUCACGUCGCAGCCCCUGUCAGACUCUGGUGAAUCUGCGAAUUCUGCUGUAUAUCUC [G7A U48C] | 0.16 |
| UAACAGAGGGCCACAGCAGAAGCGUUCACGUCGCAGCCCCUGUCAGAUCCUGGUGAAUCUGCGAAUUCUGCUGUAUAUCUC [G7A U49C] | 0.2 |
| UAACAGAGGGCCACAGCAGAAGCGUUCACGUCGCAGCCCCUGUCAGAUUCAGGUGAAUCUGCGAAUUCUGCUGUAUAUCUC [G7A U51A] | 0.35 |
| UAACAGAGGGCCACAGCAGAAGCGUUCACGUCGCAGCCCCUGUCAGAUUCCGGUGAAUCUGCGAAUUCUGCUGUAUAUCUC [G7A U51C] | 0.2 |
